Measured values: patent US20120201792A1, “METHODS AND PRODUCTS FOR MANIPULATING HEMATOPOIETIC STEM CELLS” (The General Hospital Corporation, priority 2000, published 2012)

Experiments:
SC-GPR = biological target: T1, SC-GPR (Homo sapiens, UniProt Q15391); assay: Intracellular calcium flux (Fura-2) in Cos-7 cells expressing SC-GPR; conditions: Fura-2 loaded cells expressing SC-GPR, fluorescence ratio F340/F380
T1 sequence (Q15391 1-338): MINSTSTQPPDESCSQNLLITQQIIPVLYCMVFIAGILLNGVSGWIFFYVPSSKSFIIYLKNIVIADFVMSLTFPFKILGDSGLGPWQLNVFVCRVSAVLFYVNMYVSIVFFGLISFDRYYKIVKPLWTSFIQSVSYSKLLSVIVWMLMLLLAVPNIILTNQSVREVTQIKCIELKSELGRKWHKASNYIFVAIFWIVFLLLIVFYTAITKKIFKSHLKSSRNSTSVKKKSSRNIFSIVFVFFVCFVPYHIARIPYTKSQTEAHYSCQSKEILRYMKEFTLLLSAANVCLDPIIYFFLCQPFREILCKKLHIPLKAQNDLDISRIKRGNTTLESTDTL

KIAA0001 receptor = biological target: T2, KIAA0001 receptor (Homo sapiens, UniProt Q15391); conditions: Chambers et al., 2000 J Biol Chem; cited from earlier work
T2 sequence (Q15391 1-338): T1 sequence (Q15391 1-338)

Molecule: Nc1ncnc2c1ncn2[C@@H]1O[C@H](COP(=O)(O)OP(=O)(O)OP(=O)(O)O)[C@@H](O)[C@H]1O [ATP]
- calcium flux / activation of SC-GPR expressing cells (SC-GPR): failed to result in activation

Molecule: CCCCC/C=C\C[C@@H](O)/C=C/C=C/C=C\[C@@H](O)CCCC(=O)O [LTB4]
- calcium flux / activation of SC-GPR expressing cells (SC-GPR): failed to result in activation

Molecule: CCCCCCCCCCCCCCCCOC[C@H](COP(=O)([O-])OCC[N+](C)(C)C)OC(C)=O [PAF]
- calcium flux / activation of SC-GPR expressing cells (SC-GPR): failed to result in activation

Molecule: CC(=O)N[C@H]1[C@@H](OP(=O)(O)OP(=O)(O)OC[C@H]2O[C@@H](n3ccc(=O)[nH]c3=O)[C@H](O)[C@@H]2O)O[C@H](CO)[C@@H](O)[C@@H]1O [UDP-N-acetylglucosamine]
- binding to the receptor and induction of calcium flux (KIAA0001 receptor): bind to the receptor and induce calcium flux

Molecule: O=C(O)[C@H]1O[C@H](OP(=O)(O)OP(=O)(O)OC[C@H]2O[C@@H](n3ccc(=O)[nH]c3=O)[C@H](O)[C@@H]2O)[C@H](O)[C@@H](O)[C@@H]1O [UDP-glucuronic acid]
- binding to the receptor and induction of calcium flux (KIAA0001 receptor): bind to the receptor and induce calcium flux

Molecule: IL-8: known chemokine screened as potential SC-GPR ligand
- calcium flux / activation of SC-GPR expressing cells (SC-GPR): failed to result in activation

Molecule: MCP 1: known chemokine screened as potential SC-GPR ligand
- calcium flux / activation of SC-GPR expressing cells (SC-GPR): failed to result in activation

Molecule: MCP 3: printed as "MCP 1, 3, 4"; known chemokine screened
- calcium flux / activation of SC-GPR expressing cells (SC-GPR): failed to result in activation

Molecule: MCP 4: printed as "MCP 1, 3, 4"; known chemokine screened
- calcium flux / activation of SC-GPR expressing cells (SC-GPR): failed to result in activation

Molecule: MIP1a: known chemokine screened as potential SC-GPR ligand
- calcium flux / activation of SC-GPR expressing cells (SC-GPR): failed to result in activation

Molecule: PF4: known chemokine screened as potential SC-GPR ligand
- calcium flux / activation of SC-GPR expressing cells (SC-GPR): failed to result in activation

Molecule: RANTES: known chemokine screened as potential SC-GPR ligand
- calcium flux / activation of SC-GPR expressing cells (SC-GPR): failed to result in activation

Molecule: SDF-1: known chemokine screened as potential SC-GPR ligand
- calcium flux / activation of SC-GPR expressing cells (SC-GPR): failed to result in activation

B1: TARC: known chemokine screened as potential SC-GPR ligand (protein)
chain: ARGTNVGRECCLEYFKGAIPLRKLKTWYQTSEDCSRDAIVFVTVQGRAICSDPNNKRVKNAVKYLQSLERS
- calcium flux / activation of SC-GPR expressing cells (SC-GPR): failed to result in activation

B2: MIP1b: known chemokine screened as potential SC-GPR ligand (protein)
chain: APMGSDPPTACCFSYTARKLPRNFVVDYYETSSLCSQPAVVFQTKRSKQVCADPSESWVQEYVYDLELN
- calcium flux / activation of SC-GPR expressing cells (SC-GPR): failed to result in activation
